For experiment [1], the target named is M2 truncated peptide NM11 (influenza A virus). The experiment can be described thus: peptide ELISA, antibody at 10 ug/ml.
Experiment [2] has as its target M2 truncated peptide M15 (influenza A virus). The experiment can be described thus: peptide ELISA, antibody at 10 ug/ml.
For experiment [3], the target named is M2 truncated peptide NM10 (influenza A virus). The experiment can be described thus: peptide ELISA, antibody at 10 ug/ml.
Experiment [4] deals with M2 truncated peptide CM13 (influenza A virus). Briefly: peptide ELISA, antibody at 10 ug/ml.
In experiment [5] the target is M2 truncated peptide CM15 (influenza A virus). The experiment can be described thus: peptide ELISA, antibody at 10 ug/ml.
Experiment [6] deals with M2 truncated peptide NN15 (influenza A virus). The experiment can be described thus: peptide ELISA, antibody at 10 ug/ml.
Experiment [7] has as its target M2 truncated peptide M12 (influenza A virus). The experiment can be described thus: peptide ELISA, antibody at 10 ug/ml.
Experiment [8] deals with M2 truncated peptide NM14 (influenza A virus). Briefly: peptide ELISA, antibody at 10 ug/ml.
The target in experiment [9] is M2 truncated peptide NM16 (influenza A virus). Briefly: peptide ELISA, antibody at 10 ug/ml.
For experiment [10], the target named is M2 truncated peptide CM12 (influenza A virus). The experiment can be described thus: peptide ELISA, antibody at 10 ug/ml.
Experiment [11] concerns the target M2 truncated peptide NM8 (influenza A virus). The experiment can be described thus: peptide ELISA, antibody at 10 ug/ml.
For experiment [12], the target named is M2 truncated peptide NM17 (influenza A virus). Briefly: peptide ELISA, antibody at 10 ug/ml.
Experiment [13] has as its target M2 peptide (extracellular 23-amino-acid peptide of influenza virus matrix M2 protein) (influenza A virus). Briefly: peptide ELISA, antibody at 10 ug/ml.
The target in experiment [14] is M2 truncated peptide CM14 (influenza A virus). The experiment can be described thus: peptide ELISA, antibody at 10 ug/ml.
In experiment [15] the target is M2 truncated peptide NM13 (influenza A virus). Briefly: peptide ELISA, antibody at 10 ug/ml.
Experiment [16] concerns the target M2 truncated peptide NM7 (influenza A virus). Briefly: peptide ELISA, antibody at 10 ug/ml.
In experiment [17] the target is M2 truncated peptide NN9 (influenza A virus). Briefly: peptide ELISA, antibody at 10 ug/ml.
For experiment [18], the target named is M2 truncated peptide CM16 (influenza A virus). The experiment can be described thus: peptide ELISA, antibody at 10 ug/ml.
In experiment [19] the target is M2 truncated peptide NM12 (N-terminal 12-amino acid peptide) (influenza A virus). The experiment can be described thus: peptide ELISA, antibody at 10 ug/ml.
Experiment [20] deals with M2 truncated peptide M16 (influenza A virus). Briefly: peptide ELISA, antibody at 10 ug/ml.
Experiment [21] deals with M2 truncated peptide CM17 (influenza A virus). Briefly: peptide ELISA, antibody at 10 ug/ml.
The target in experiment [22] is M2 protein expressed on A/HK/1/68 infected MDCK cells (influenza A virus A/HK/1/68). Briefly: cell-based ELISA, half-saturating antibody concentration. As to conditions: remark: other sources report otherwise.

B1: human anti-M2 monoclonal antibody C40G1 (antibody)
chain 1: QLQLQESGPGLVKPSETLSLTCTVSGGSISSSFYYCGWIRQPPGKGLEWIGSIYYRGSTYYNPSLKSRVTISVDTSKNQFSLKLSSVTAADTAVYYCARRVTMVRGVKGDYFDYWGQGTLVTVSS
chain 2: DIQMTQSPSSLSASVGDRVTITCRASQGISSWLAWYQQKPEKVPKSLIYAASSLQSGVPSRFSGSGSGTDFTLTISSLQPEDFATYYCQQYNYYPLTFGGGTKVEIKR
Take B1: the ELISA (OD450) in experiment [1] was found to be 0.15 OD450; in experiment [2] it was 1.93 OD450; in [3], 0.11 OD450; in [4] it was 0.11 OD450; in experiment [5] it was 0.1 OD450; in [6], 2.67 OD450. Besides, the ELISA (OD450) in experiment [7] is 1.95 OD450; in experiment [8], 1.93 OD450; in experiment [9] it was 2.17 OD450; in experiment [10] it was 0.11 OD450; in experiment [11] it was 0.1 OD450; in experiment [12], 2.18 OD450. In addition, the ELISA (OD450) in [13] came out at 2.38 OD450; in experiment [14] it was 0.1 OD450; in experiment [15], 1.82 OD450; in experiment [16], 0.09 OD450; in experiment [17], 0.13 OD450; in [18], 1.41 OD450. Moreover, the ELISA (OD450) is 0.16 OD450 in experiment [19], 1.75 OD450 in experiment [20] and 3.01 OD450 in [21]. The Kd in [22] was 0.542 nM.

B2: human anti-M2 monoclonal antibody L66 (antibody)
chain 1: EVQLVESGGGVVRPGGSLRLSCAASGFTFDDYGMSWVRQAPGKGLEWVSGINWNGGSTGYADSVKGRFTISRDNAKNSLYLQMNSLRAEDTALYYCARDRVTMVRGVIMDYYGMDVWGQGTTVTVSS
chain 2: QTVVTQEPSLTVSPRGTVTLTCSSSTGAVTSGYYPGWFQLKPGQAPMSLIYSARKKHSWTPARFSGSLLGGKAALTLSGVQPEDEAEYYCLLYYGGAYVFGTGTKVTVLG
On to B2, for which the ELISA (OD450) in [1] is 0.17 OD450; in experiment [2], 0.2 OD450; in experiment [3], 0.16 OD450; in experiment [4], 0.15 OD450; in experiment [5], 0.13 OD450; in [6], 0.28 OD450. Besides, the ELISA (OD450) came out at 0.19 OD450 in [7]; 0.16 OD450 in [8]; 2.52 OD450 in [9]; 0.16 OD450 in experiment [10]; 0.18 OD450 in experiment [11]; 1.92 OD450 in experiment [12]. Moreover, the ELISA (OD450) in [13] was 1.04 OD450; in experiment [14], 0.13 OD450; in experiment [15] it was 0.17 OD450; in experiment [16] it was 0.18 OD450; in experiment [17], 0.16 OD450; in experiment [18], 0.13 OD450. The ELISA (OD450) in [19] turned out to be 0.12 OD450; in experiment [20], 0.27 OD450; in experiment [21], 0.14 OD450. This molecule came in with a Kd in experiment [22] of 0.531 nM.
